T1: human FcγRIIa type H (human, UniProt P12318 36-217)
T1 construct: also called FcγRIIaH; FcγRIIa(H)
T1 sequence: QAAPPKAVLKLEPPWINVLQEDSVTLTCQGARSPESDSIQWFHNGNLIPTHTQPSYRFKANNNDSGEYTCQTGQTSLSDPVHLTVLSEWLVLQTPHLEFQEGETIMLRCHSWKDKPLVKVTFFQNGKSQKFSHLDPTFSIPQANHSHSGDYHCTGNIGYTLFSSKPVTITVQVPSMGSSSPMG

T2: human FcγRIIa type R (human, UniProt P12318 36-217)
T2 construct: also called FcγRIIaR; FcγRIIa(R)
T2 chain: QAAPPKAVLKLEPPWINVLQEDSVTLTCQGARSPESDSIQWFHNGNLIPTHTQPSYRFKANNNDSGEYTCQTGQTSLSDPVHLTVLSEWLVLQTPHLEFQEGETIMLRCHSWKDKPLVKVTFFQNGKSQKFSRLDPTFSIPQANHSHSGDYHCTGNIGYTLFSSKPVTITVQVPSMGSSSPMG

T3: human FcγRIIb (human, UniProt P31994 43-217, limits assumed)
T3 construct: also called FcγIIB
T3 sequence: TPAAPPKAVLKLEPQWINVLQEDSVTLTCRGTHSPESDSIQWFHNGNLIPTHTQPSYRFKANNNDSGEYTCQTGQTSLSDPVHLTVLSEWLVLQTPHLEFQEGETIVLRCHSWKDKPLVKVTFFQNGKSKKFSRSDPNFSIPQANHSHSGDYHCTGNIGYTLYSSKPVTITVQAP


Columns and labels:
Assay in all cases: SPR (Biacore), binding amount relative to IL6R-BF648/IL6R-L = 100
human FcγRIIa type H = target: T1, human FcγRIIa type H
human FcγRIa = target: T4, human FcγRIa (human, UniProt P12314 16-292, limits assumed)
T4 construct: also called CD64

human FcγRIIa type R = target: T2, human FcγRIIa type R
human FcγRIIIa type V = target: T5, human FcγRIIIa type V (human, UniProt P08637 17-208, limits assumed)
T5 construct: also called FcγRIIIaV; FcγRIIIa(V)

human FcγRIIb = target: T3, human FcγRIIb

T4 sequence (P12314 16-292 limits assumed): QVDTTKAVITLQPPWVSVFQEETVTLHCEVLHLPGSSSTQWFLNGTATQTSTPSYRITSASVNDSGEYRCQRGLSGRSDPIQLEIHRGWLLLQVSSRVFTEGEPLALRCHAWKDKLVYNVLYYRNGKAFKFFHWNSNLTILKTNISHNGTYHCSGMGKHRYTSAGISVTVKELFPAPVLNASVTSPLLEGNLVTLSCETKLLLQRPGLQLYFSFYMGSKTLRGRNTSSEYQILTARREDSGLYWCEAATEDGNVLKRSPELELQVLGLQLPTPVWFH
T5 sequence (P08637 other isoform, or with tags, fused parts or gaps limits assumed): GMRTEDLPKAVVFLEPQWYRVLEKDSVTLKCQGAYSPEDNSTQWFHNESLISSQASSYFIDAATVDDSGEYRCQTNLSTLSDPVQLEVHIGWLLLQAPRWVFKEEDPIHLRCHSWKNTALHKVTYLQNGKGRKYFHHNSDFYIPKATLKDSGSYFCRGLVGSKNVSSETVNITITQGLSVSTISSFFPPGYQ

Binder | relative binding (human FcγRIIa type H) | relative binding (human FcγRIa) | relative binding (human FcγRIIa type R) | relative binding (human FcγRIIIa type V) | relative binding (human FcγRIIb)
IL6R-BF648/IL6R-L (antibody, human IgG1, IL6R-B3 with P238D; also called P238D) heavy: not shown light: DIQMTQSPSSLSASVGDRVTITCRASQDISSYLNWYQQKPGKAPKLLIYYTSRLHSGVPSRFSGSGSGTDFTFTISSLQPEDIATYYCQQGNTLPYTFGQGTKVEIK | 100 | 100 | 100 | 100 | 100
IL6R-B3/IL6R-L (antibody, human IgG1, IL6R-G1d with K439E (EU numbering)) heavy: not shown light: DIQMTQSPSSLSASVGDRVTITCRASQDISSYLNWYQQKPGKAPKLLIYYTSRLHSGVPSRFSGSGSGTDFTFTISSLQPEDIATYYCQQGNTLPYTFGQGTKVEIK | 1600 | 145 | 625 | 3260 | 58
IL6R-BP107/IL6R-L (antibody, human IgG1, Alteration introduced into IL6R-B3; also called P238D/H268E) heavy: QVQLQESGPGLVKPSETLSLTCAVSGHSISHDHAWSWVRQPPGEGLEWIGFISYSGITNYNPSLQGRVTISRDNSKNTLYLQMNSLRAEDTAVYYCARSLARTTAMDYWGEGTLVTVSSASTKGPSVFPLAPSSKSTSGGTAALGCLVKDYFPEPVTVSWNSGALTSGVHTFPAVLQSSGLYSLSSVVTVPSSSLGTQTYICNVNHKPSNTKVDKKVEPKSCDKTHTCPPCPAPELLGGDSVFLFPPKPKDTLMISRTPEVTCVVVDVSEEDPEVKFNWYVDGVEVHNAKTKPREEQYNSTYRVVSVLTVLHQDWLNGKEYKCKVSNKALPAPIEKTISKAKGQPREPQVYTLPPSRDELTKNQVSLTCLVKGFYPSDIAVEWESNGQPENNYKTTPPVLDSDGSFFLYSKLTVDKSRWQQGNVFSCSVMHEALHNHYTQESLSLSP light: DIQMTQSPSSLSASVGDRVTITCRASQDISSYLNWYQQKPGKAPKLLIYYTSRLHSGVPSRFSGSGSGTDFTFTISSLQPEDIATYYCQQGNTLPYTFGQGTKVEIK | – | 123 | 147 | 129 | 118
IL6R-2B171/IL6R-L (antibody, human IgG1, Alteration introduced into IL6R-B3; also called P238D/V323L) heavy: QVQLQESGPGLVKPSETLSLTCAVSGHSISHDHAWSWVRQPPGEGLEWIGFISYSGITNYNPSLQGRVTISRDNSKNTLYLQMNSLRAEDTAVYYCARSLARTTAMDYWGEGTLVTVSSASTKGPSVFPLAPSSKSTSGGTAALGCLVKDYFPEPVTVSWNSGALTSGVHTFPAVLQSSGLYSLSSVVTVPSSSLGTQTYICNVNHKPSNTKVDKKVEPKSCDKTHTCPPCPAPELLGGDSVFLFPPKPKDTLMISRTPEVTCVVVDVSHEDPEVKFNWYVDGVEVHNAKTKPREEQYNSTYRVVSVLTVLHQDWLNGKEYKCKLSNKALPAPIEKTISKAKGQPREPQVYTLPPSRDELTKNQVSLTCLVKGFYPSDIAVEWESNGQPENNYKTTPPVLDSDGSFFLYSKLTVDKSRWQQGNVFSCSVMHEALHNHYTQESLSLSP light: DIQMTQSPSSLSASVGDRVTITCRASQDISSYLNWYQQKPGKAPKLLIYYTSRLHSGVPSRFSGSGSGTDFTFTISSLQPEDIATYYCQQGNTLPYTFGQGTKVEIK | 115 | 116 | 117 | 122 | 113
IL6R-2B128/IL6R-L (antibody, human IgG1, Alteration introduced into IL6R-B3; also called P238D/Y296D) heavy: QVQLQESGPGLVKPSETLSLTCAVSGHSISHDHAWSWVRQPPGEGLEWIGFISYSGITNYNPSLQGRVTISRDNSKNTLYLQMNSLRAEDTAVYYCARSLARTTAMDYWGEGTLVTVSSASTKGPSVFPLAPSSKSTSGGTAALGCLVKDYFPEPVTVSWNSGALTSGVHTFPAVLQSSGLYSLSSVVTVPSSSLGTQTYICNVNHKPSNTKVDKKVEPKSCDKTHTCPPCPAPELLGGDSVFLFPPKPKDTLMISRTPEVTCVVVDVSHEDPEVKFNWYVDGVEVHNAKTKPREEQDNSTYRVVSVLTVLHQDWLNGKEYKCKVSNKALPAPIEKTISKAKGQPREPQVYTLPPSRDELTKNQVSLTCLVKGFYPSDIAVEWESNGQPENNYKTTPPVLDSDGSFFLYSKLTVDKSRWQQGNVFSCSVMHEALHNHYTQESLSLSP light: DIQMTQSPSSLSASVGDRVTITCRASQDISSYLNWYQQKPGKAPKLLIYYTSRLHSGVPSRFSGSGSGTDFTFTISSLQPEDIATYYCQQGNTLPYTFGQGTKVEIK | 37 | 95 | 87 | 96 | 103
IL6R-2B172/IL6R-L (antibody, human IgG1, Alteration introduced into IL6R-B3; also called P238D/V323M) heavy: QVQLQESGPGLVKPSETLSLTCAVSGHSISHDHAWSWVRQPPGEGLEWIGFISYSGITNYNPSLQGRVTISRDNSKNTLYLQMNSLRAEDTAVYYCARSLARTTAMDYWGEGTLVTVSSASTKGPSVFPLAPSSKSTSGGTAALGCLVKDYFPEPVTVSWNSGALTSGVHTFPAVLQSSGLYSLSSVVTVPSSSLGTQTYICNVNHKPSNTKVDKKVEPKSCDKTHTCPPCPAPELLGGDSVFLFPPKPKDTLMISRTPEVTCVVVDVSHEDPEVKFNWYVDGVEVHNAKTKPREEQYNSTYRVVSVLTVLHQDWLNGKEYKCKMSNKALPAPIEKTISKAKGQPREPQVYTLPPSRDELTKNQVSLTCLVKGFYPSDIAVEWESNGQPENNYKTTPPVLDSDGSFFLYSKLTVDKSRWQQGNVFSCSVMHEALHNHYTQESLSLSP light: DIQMTQSPSSLSASVGDRVTITCRASQDISSYLNWYQQKPGKAPKLLIYYTSRLHSGVPSRFSGSGSGTDFTFTISSLQPEDIATYYCQQGNTLPYTFGQGTKVEIK | 179 | 140 | 244 | 144 | 132
IL6R-2B002/IL6R-L (antibody, human IgG1, Alteration introduced into IL6R-B3; also called P238D/E233D) heavy: QVQLQESGPGLVKPSETLSLTCAVSGHSISHDHAWSWVRQPPGEGLEWIGFISYSGITNYNPSLQGRVTISRDNSKNTLYLQMNSLRAEDTAVYYCARSLARTTAMDYWGEGTLVTVSSASTKGPSVFPLAPSSKSTSGGTAALGCLVKDYFPEPVTVSWNSGALTSGVHTFPAVLQSSGLYSLSSVVTVPSSSLGTQTYICNVNHKPSNTKVDKKVEPKSCDKTHTCPPCPAPDLLGGDSVFLFPPKPKDTLMISRTPEVTCVVVDVSHEDPEVKFNWYVDGVEVHNAKTKPREEQYNSTYRVVSVLTVLHQDWLNGKEYKCKVSNKALPAPIEKTISKAKGQPREPQVYTLPPSRDELTKNQVSLTCLVKGFYPSDIAVEWESNGQPENNYKTTPPVLDSDGSFFLYSKLTVDKSRWQQGNVFSCSVMHEALHNHYTQESLSLSP light: DIQMTQSPSSLSASVGDRVTITCRASQDISSYLNWYQQKPGKAPKLLIYYTSRLHSGVPSRFSGSGSGTDFTFTISSLQPEDIATYYCQQGNTLPYTFGQGTKVEIK | 147 | 118 | 103 | 147 | –
IL6R-BP100/IL6R-L (antibody, human IgG1, Alteration introduced into IL6R-B3; also called P238D/S267A) heavy: QVQLQESGPGLVKPSETLSLTCAVSGHSISHDHAWSWVRQPPGEGLEWIGFISYSGITNYNPSLQGRVTISRDNSKNTLYLQMNSLRAEDTAVYYCARSLARTTAMDYWGEGTLVTVSSASTKGPSVFPLAPSSKSTSGGTAALGCLVKDYFPEPVTVSWNSGALTSGVHTFPAVLQSSGLYSLSSVVTVPSSSLGTQTYICNVNHKPSNTKVDKKVEPKSCDKTHTCPPCPAPELLGGDSVFLFPPKPKDTLMISRTPEVTCVVVDVAHEDPEVKFNWYVDGVEVHNAKTKPREEQYNSTYRVVSVLTVLHQDWLNGKEYKCKVSNKALPAPIEKTISKAKGQPREPQVYTLPPSRDELTKNQVSLTCLVKGFYPSDIAVEWESNGQPENNYKTTPPVLDSDGSFFLYSKLTVDKSRWQQGNVFSCSVMHEALHNHYTQESLSLSP light: DIQMTQSPSSLSASVGDRVTITCRASQDISSYLNWYQQKPGKAPKLLIYYTSRLHSGVPSRFSGSGSGTDFTFTISSLQPEDIATYYCQQGNTLPYTFGQGTKVEIK | 128 | 121 | 197 | 138 | 110
IL6R-2B169/IL6R-L (antibody, human IgG1, Alteration introduced into IL6R-B3; also called P238D/V323I; 1L6R-2B169/IL6R-L) heavy: QVQLQESGPGLVKPSETLSLTCAVSGHSISHDHAWSWVRQPPGEGLEWIGFISYSGITNYNPSLQGRVTISRDNSKNTLYLQMNSLRAEDTAVYYCARSLARTTAMDYWGEGTLVTVSSASTKGPSVFPLAPSSKSTSGGTAALGCLVKDYFPEPVTVSWNSGALTSGVHTFPAVLQSSGLYSLSSVVTVPSSSLGTQTYICNVNHKPSNTKVDKKVEPKSCDKTHTCPPCPAPELLGGDSVFLFPPKPKDTLMISRTPEVTCVVVDVSHEDPEVKFNWYVDGVEVHNAKTKPREEQYNSTYRVVSVLTVLHQDWLNGKEYKCKISNKALPAPIEKTISKAKGQPREPQVYTLPPSRDELTKNQVSLTCLVKGFYPSDIAVEWESNGQPENNYKTTPPVLDSDGSFFLYSKLTVDKSRWQQGNVFSCSVMHEALHNHYTQESLSLSP light: DIQMTQSPSSLSASVGDRVTITCRASQDISSYLNWYQQKPGKAPKLLIYYTSRLHSGVPSRFSGSGSGTDFTFTISSLQPEDIATYYCQQGNTLPYTFGQGTKVEIK | 83 | 73 | – | 94 | 104
